The test system of the series is Saccharomyces cerevisiae. Nature of the series: transcriptional activation domain activity (GFP:mCherry ratio, weighted mean of sorted bins, harmonized to initial dataset scale) (arbitrary fluorescence ratio units); higher = stronger transcriptional activation. The note with it: beta-estradiol 1 µM; induction time 4 h. The method, boiled down: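 In diploid yeast carrying a GFP reporter, barcoded protein tiles fused to an estradiol-inducible synthetic transcription factor were integrated at the URA3 locus. Cultures diluted 1:5 into SC with 1 uM beta-estradiol were kept at 30 °C for 4 hours, then sorted by GFP:mCherry ratio into 8 bins before barcode sequencing. Tiles with under 50 reads were excluded. The activation activity reported here is the read-weighted mean of bin median fluorescence, averaged across barcodes and linearly rescaled to the initial dataset.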

Regarding “EREEEEEEEEEEEEVVVVAKAKANEREREEEAEEAEEVEEVVAKSRKAKGKAK”, the “transcriptional activation domain activity” value is 16600.

Consider “EREERRRQERAKEEAEGGNRRGKKNKGEAGGGKRGRGKRPRRGRRKGQRARGG”, for which the “transcriptional activation domain activity” value was 34400.

On to “EREILWRAYLRLIKHVNSIFKIRIAYEWTEDYVIKYLWSAAGYCLISIPILFT”, for which the “transcriptional activation domain activity” value was determined as 77100.

For “EREKKKGREKEEKGGKERRGKKGRGKEEGKKRRKRGRKERKEGRKGEEGKRGR”, the “transcriptional activation domain activity” value is 33600.

With “ERERDRDRDRERDRDRDRERAREREHERNHERRKRRRERDRERRRGKSAAAAA”, the “transcriptional activation domain activity” value was found to be 33800.

Regarding “EREREKREEREREAARLRREAEEREREEHEGRKREKREEPEEREAEEREREVE”, the “transcriptional activation domain activity” value came to 33200.

For “EREVRDEERTRRNREKRNRKKGKGGKGGKEDGGAGGGGGGGNVKARVGMVGDG”, the “transcriptional activation domain activity” value came out at 15100.

For the sequence “ERGKRKEGRKEEEGKEGEKGKEEKREEKRRGKRGEEKREGKKKEERRRGRRRR”, the “transcriptional activation domain activity” value is 20800.

As for “ERGTEEREKEREEGMRGRRGKRNRGRWKREGEEEGGEEEGRKGRKEKGRQGAE”, the “transcriptional activation domain activity” value came out at 47700.

Regarding “ERGTGGQGRRAEEEEAQGGDGGHKTKERGRDEEAGAGGGPAEAGAGAGAKGRT”, the “transcriptional activation domain activity” value amounted to 28600.

For “ERHLLPGNIFWAVAFGWWLSGCCMIVSGLLYLVPMGGGRYGKLIYGLGWYLAW”, the “transcriptional activation domain activity” value was 65400.

Take “ERKDREKMKAKLKEAKREKQRKERAREREKERERKRKEKEKEKKRKEKERERK”: the “transcriptional activation domain activity” value came to 38000.

On to “ERKEAKEQTRRETESKARRGADKEGSEENREDEEGEKKERTSESTDKQKSRRT”, for which the “transcriptional activation domain activity” value stood at 33700.

Consider “ERKRERREKKEKEREREQREEREKSKERSGKKNGKDSEKRRERRGEKGSEERR”, for which the “transcriptional activation domain activity” value amounted to 32800.

As to “ERKRKREMAGEDDGRAEAKKVKKEKKEGEKEREKKGKKERKGKKEKEKRKKDM”, the “transcriptional activation domain activity” value amounted to 16800.

Regarding “ERKRRAKQKEKEERKKKKKKNANSKDARQRSESSSRREKRKDEDSDDEEEEGG”, the “transcriptional activation domain activity” value is 35700.

Regarding “ERLPVDLAVLCTIVEKLFGLAIMTARHRDLGSLHGVLLPRTWILSLWGDFLRF”, the “transcriptional activation domain activity” value amounted to 71700.

“ERLPVDLAVVCTIVERLFGLAVMTARLRKLGSLHGVLLPRTWVLALWRDFIRF”: the “transcriptional activation domain activity” value was found to be 67500.

Regarding “ERPFFALVVCGEYAHLSPETRVKVAQLLLRCLPAPNLSLLVYLLSFLSHFQHA”, the “transcriptional activation domain activity” value worked out at 62200.

Take “ERPREKKEHSRRHRDDEEKGRRRRHRSRSRSRDRRERRRERSRSRERRRGGDE”: the “transcriptional activation domain activity” value was 13000.

In the case of “ERQGRGQREERRREDHSRTRVPQRQGQEQREERRREDQYSRQEQQSQGLGQRK”, the “transcriptional activation domain activity” value amounted to 42100.

For the sequence “ERRMGTCRSFHLRVGLPQLYAARLLIKASLDVRRLSVWQLGQLVWSIQKFSRQ”, the “transcriptional activation domain activity” value was determined as 32200.

For “ERRRKDQRKREKEEEERCHQEGREKKGEEHRREGDEERGRKEQETHASQEANG”, the “transcriptional activation domain activity” value worked out at 29600.

“ERSILWRAYLRLISHINSIYKIRIAYEWTEDFVIKYLWSAAGYCLISVPVLLT”: the “transcriptional activation domain activity” value is 54200.

Take “ERSLGGGSLYTGKAVHTDPEMSEVHATEYTRGRLRKFLCLAFGEVASVLRLDK”: the “transcriptional activation domain activity” value came to 16600.

Regarding “ERVGERRGSGKTERQRAHDAPEREGARGEKGRRARGTNGEGRGGEEREVRQEG”, the “transcriptional activation domain activity” value was 25600.

On to “ERVIGGIQEDLLLIKTFLTRLSLSHHIHNFHADSWSLGHLASLSWYSFMVWFL”, for which the “transcriptional activation domain activity” value turned out to be 80000.

As to “ESAAASSNQSSAPASAPTPNAPPSTANAEGGENKPKPSRRRGRGGGGGGQKQN”, the “transcriptional activation domain activity” value came out at 27400.

Take “ESAKDKENAKGRKEAEKKKNKEEKERVKKESRERERESRRSAEGRKRPALASL”: the “transcriptional activation domain activity” value worked out at 25400.

For “ESAPAAEDKPAEETKPAEAEEAPKAEEKKEEVKPIEEGHLNHKAQGLSFPKNL”, the “transcriptional activation domain activity” value was below 6570.

As for “ESASAAEEPAAKSKRGKKSQAEPEEEELSAVDEEHEPAPKSKRSKKSKAAVET”, the “transcriptional activation domain activity” value worked out at 13800.

Turning to “ESASTNTSSALNCQSYTNNQDIMDILFQVTSGSVWDEFFVRSGNGNEGESSYD”, the “transcriptional activation domain activity” value is 86700.

In the case of “ESAVKFENSGPFINPSRASTLLVSRDSNRIILSGTTARGKTAVFLTTGLLVES”, the “transcriptional activation domain activity” value is 63200.

As for “ESCDGSLWLCPFSQPVRPSLIKLVSRGIDRRRITSLLFMLWLVCWAVSLLFSK”, the “transcriptional activation domain activity” value is 59900.

For “ESDAGEGDKLSKKQKAESGKAVKPEATEGADKKDKKKDKKEKKKDKEAPAKAD”, the “transcriptional activation domain activity” value was below 6570.

For “ESDEEAAVEAEAPKKKGRAKKVKPESEVDHEPAFEQPKKKGRAAKAKIQPAEE”, the “transcriptional activation domain activity” value is 15400.

Regarding “ESDEPEQQRAKSQSRRRQSRGRGRKGGSESEAERSDVSASGGGRRNRQRQKKQ”, the “transcriptional activation domain activity” value came out at 9900.

For the origin of these results see the supplement of paper PMC12636428.
